Measured values reported in US20140223606, “COMPOSITIONS AND METHODS COMPRISING SEQUENCES HAVING MEGANUCLEASE ACTIVITY” (PIONEER HI BRED INTERNATIONAL INC, published 2014).
Substitutions are numbered along the chain they refer to.

Columns and labels:
Assay in all cases: cell_activity; yeast 30 C; 22 C: 0
Details in all cases: tags: NLS, 6xHis
LIG3-4(A4) = target: T1, LIG3-4(A4) (artificial)
T1 chain: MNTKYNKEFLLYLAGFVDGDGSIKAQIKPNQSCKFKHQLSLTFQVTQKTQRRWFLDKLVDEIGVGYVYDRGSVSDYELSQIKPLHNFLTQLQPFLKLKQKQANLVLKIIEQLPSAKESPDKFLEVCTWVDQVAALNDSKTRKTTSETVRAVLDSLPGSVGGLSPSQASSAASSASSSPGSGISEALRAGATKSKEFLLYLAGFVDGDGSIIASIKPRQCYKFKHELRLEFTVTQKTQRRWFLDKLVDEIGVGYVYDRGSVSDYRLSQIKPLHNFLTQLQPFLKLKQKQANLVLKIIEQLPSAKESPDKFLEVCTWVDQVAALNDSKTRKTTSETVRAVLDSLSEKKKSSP
Experimental: (§1) A 3 mL culture of selective media (MP Biomedical) was inoculated with a single colony of the yeast screening strain and grown at 30° C. overnight. On the following day, a 50 ml YPD culture (MP Biomedical) was started with 2 ml of the overnight culture and grown at 30° C. overnight. On the following day, the cells were harvested by centrifugation at 4000 rpm. The cells were resuspended in 100 ml ice cold water and centrifuged again. The cells were then washed in 1.2 M sorbitol, followed by treatment with 2 ml of 10 mM Tris pH 8.0, 1 mM EDTA, 100 mM Lithium acetate, 10 mM DTT, 0.6M sorbitol for 30 minutes at 30° C. with shaking. The cells were recovered by centrifugation, washed in 40 ml 1.2M sorbitol and finally resuspended in 250 microliters of 1.2M sorbitol. 50 microliter aliquots were transferred to test tubes on ice. Up to 5 microliters of DNA (100-500 nanograms) were added. The suspension was transferred to a 0.2 cm electroporation cuvette, on ice. Electroporation was performed with a pulse charge at 1.5 kV, 200 ohms, 25 microF (pulse time of 5 milliseconds). 1 mL YPD media (MP Biomedical) was added and the cells were allowed to recover at 30° C. for 1-2 hr. The cells were centrifuged, resuspended in 100 uL 1M sorbitol and plated on selective media lacking leucine and containing 2% galactose. The resulting yeast colonies were incubated at various temperatures ranging from 22 to 37 degrees Celsius for 7-10 days. I-CreI and meganucleases derived from it have maximal activity at or above 37 degrees Celsius. Screening was performed at a range of temperatures from 22 to 37 degrees in order to observe increases in activity at lower temperatures which are relevant to certain biological systems (eg. plant cells, plant cell cultures, etc). At that time the red/white sectoring phenotype, indicative of meganuclease activity was observed. Colonies with increased white sectoring over the parental meganuclease (indicating colonies expressing a meganuclease with increased meganuclease activity), also referred to as “hits” and sometimes completely white, were isolated for further analysis.

LIG3-4(B40) = target: T2, LIG3-4(B40) (artificial)
T2 chain: T1 chain with Q50K, V132I, G258K, V319I
Experimental: as §1

LIG3-4(A6) = target: T3, LIG3-4(A6) (artificial)
T3 chain: T1 chain with F281Y, V319I
Experimental: as §1

LIG3-4(B24) = target: T4, LIG3-4(B24) (artificial)
T4 chain: T1 chain with S22C, V132I, V319I
Experimental: as §1

LIG3-4(B55) = target: T5, LIG3-4(B55) (artificial)
T5 chain: T1 chain with S22C, V132I, S209C, G258K, V319I
Experimental: as §1

B1: LIG3-4 recognition site (dsDNA)
DNA 1: ATATACCTCACACGTACGCGTA
DNA 2: TACGCGTACGTGTGAGGTATAT
- activity (LIG3-4(A4)): 3.5 score 0-4
- activity (LIG3-4(B40)): 4 score 0-4
- activity (LIG3-4(A6)): 3 score 0-4
- activity (LIG3-4(B24)): 4 score 0-4
- activity (LIG3-4(B55)): 4 score 0-4
